Laboratory results: patent US20170129957A1 (BERGENBIO ASA, published 2017)

Experiments:
[1] = target: T1, recombinant human Mer-Fc chimera (R&D Systems, Cat. no. 891-MR) (human, UniProt Q12866 21-499, limits assumed); test: SPR (Biacore 3000), rhMer-Fc immobilised on CM5 at 303.6 RU, MAb 1H12 injected
T1 construct: Bought soluble Fc chimera; also called rhMer-Fc; rhMer; Fc part of the bought chimera not given
T1 sequence (looked up): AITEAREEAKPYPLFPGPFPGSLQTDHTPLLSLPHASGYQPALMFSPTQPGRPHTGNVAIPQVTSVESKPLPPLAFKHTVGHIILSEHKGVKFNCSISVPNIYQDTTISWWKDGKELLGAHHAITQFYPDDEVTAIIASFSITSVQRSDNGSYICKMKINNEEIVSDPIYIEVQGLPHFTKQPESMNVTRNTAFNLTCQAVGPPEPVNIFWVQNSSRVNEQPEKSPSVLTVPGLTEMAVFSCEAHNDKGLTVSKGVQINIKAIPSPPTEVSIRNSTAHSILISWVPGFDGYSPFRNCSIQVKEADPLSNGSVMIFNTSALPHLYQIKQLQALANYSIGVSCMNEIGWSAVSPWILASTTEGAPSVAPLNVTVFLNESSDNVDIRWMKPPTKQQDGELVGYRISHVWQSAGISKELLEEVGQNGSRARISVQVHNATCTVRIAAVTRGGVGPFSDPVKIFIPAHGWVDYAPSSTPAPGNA

[2] = target: T2, recombinant human Axl-Fc chimera (R&D Systems, Cat. no. 154-AL) (human, UniProt P30530 26-451); test: SPR (Biacore 3000), rhAxl-Fc immobilised on CM5 at 190 RU, MAb 1H12 at 1.3-666.7 nM, 25 °C, BIAevaluation fit [table under the sensorgrams]
T2 construct: Bought reagent; also called rhAxl-Fc; rhAxl; not shown: human IgG1 Fc domain
T2 sequence: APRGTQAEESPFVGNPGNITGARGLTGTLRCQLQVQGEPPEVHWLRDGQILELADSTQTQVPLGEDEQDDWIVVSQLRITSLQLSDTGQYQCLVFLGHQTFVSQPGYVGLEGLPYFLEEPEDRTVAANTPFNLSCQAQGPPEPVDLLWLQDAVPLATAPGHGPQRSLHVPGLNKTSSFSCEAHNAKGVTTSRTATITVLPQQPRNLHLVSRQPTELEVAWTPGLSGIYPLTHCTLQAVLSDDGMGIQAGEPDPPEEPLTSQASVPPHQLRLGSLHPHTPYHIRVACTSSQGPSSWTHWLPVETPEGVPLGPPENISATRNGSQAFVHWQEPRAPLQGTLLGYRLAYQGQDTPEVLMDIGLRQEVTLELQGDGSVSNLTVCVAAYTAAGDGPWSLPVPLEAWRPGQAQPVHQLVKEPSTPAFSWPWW

[3] = target: T3, recombinant human Tyro3/Dtk-Fc chimera (R&D Systems, Cat. no. 859-DK) (human, UniProt Q06418 41-428); test: SPR (Biacore 3000), rhTyro3/Dtk-Fc immobilised on CM5 at 364.0 RU, MAb 1H12 injected
T3 construct: Bought soluble Fc chimera; also called rhTyro3-Fc; rhTyro3; Fc part of the bought chimera not given
T3 sequence: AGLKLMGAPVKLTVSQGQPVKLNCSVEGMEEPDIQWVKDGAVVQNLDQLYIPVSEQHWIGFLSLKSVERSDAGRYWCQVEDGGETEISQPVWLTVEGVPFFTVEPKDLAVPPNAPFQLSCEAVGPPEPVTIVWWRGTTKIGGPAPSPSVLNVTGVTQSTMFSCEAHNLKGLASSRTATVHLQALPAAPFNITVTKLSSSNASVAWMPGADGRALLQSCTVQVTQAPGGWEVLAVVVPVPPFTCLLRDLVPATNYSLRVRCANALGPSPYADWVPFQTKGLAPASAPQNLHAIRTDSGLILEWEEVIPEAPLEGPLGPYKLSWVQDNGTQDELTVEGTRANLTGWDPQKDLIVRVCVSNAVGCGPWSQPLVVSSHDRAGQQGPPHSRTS

[4] = target: T4, human Axl receptor of Axl+ human cell lines (MDA-MB-231, NCI-H1299, HeLa) (human, UniProt P30530 26-894); test: flow cytometry on MDA-MB-231 cells, detection with APC-conjugated donkey anti-mouse IgG (H+L) F(ab')2
T4 construct: also called Axl+ cells; Axl-positive cells
T4 sequence: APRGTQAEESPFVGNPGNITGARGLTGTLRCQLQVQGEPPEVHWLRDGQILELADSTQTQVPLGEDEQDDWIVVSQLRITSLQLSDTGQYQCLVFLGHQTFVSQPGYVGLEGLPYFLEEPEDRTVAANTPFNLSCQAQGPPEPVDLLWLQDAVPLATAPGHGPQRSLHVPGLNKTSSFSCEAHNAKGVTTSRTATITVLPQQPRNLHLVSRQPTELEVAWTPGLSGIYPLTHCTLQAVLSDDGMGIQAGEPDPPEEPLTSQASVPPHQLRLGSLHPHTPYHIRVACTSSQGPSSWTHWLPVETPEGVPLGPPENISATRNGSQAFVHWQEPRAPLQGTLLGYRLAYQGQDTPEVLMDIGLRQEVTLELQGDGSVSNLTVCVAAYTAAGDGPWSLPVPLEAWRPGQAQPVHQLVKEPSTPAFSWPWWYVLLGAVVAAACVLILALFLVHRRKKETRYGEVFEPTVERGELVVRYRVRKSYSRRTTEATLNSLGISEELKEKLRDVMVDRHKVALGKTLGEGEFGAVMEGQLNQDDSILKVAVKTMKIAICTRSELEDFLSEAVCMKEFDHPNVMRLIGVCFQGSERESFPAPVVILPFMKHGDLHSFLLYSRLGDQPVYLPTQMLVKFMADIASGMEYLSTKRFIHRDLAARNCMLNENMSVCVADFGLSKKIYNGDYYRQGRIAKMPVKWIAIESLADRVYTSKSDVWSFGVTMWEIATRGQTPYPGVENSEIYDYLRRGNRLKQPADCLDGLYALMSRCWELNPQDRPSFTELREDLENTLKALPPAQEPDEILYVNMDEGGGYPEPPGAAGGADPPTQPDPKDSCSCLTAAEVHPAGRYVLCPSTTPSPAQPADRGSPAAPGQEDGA

[5] = target: T2, recombinant human Axl-Fc chimera (R&D …); test: SPR (Biacore 3000, 25 °C), rhAxl-Fc immobilised at 190 RU, 1H12 1.3-666.7 nM, KD as koff/kon
[6] = target: T2, recombinant human Axl-Fc chimera (R&D …); test: SPR (Biacore 3000, 25 °C), calculated as ln2/koff
[7] = target: T2, recombinant human Axl-Fc chimera (R&D …); test: SPR (Biacore 3000, 25 °C), rhAxl-Fc immobilised at 190 RU, 1H12 1.3-666.7 nM
[8] = target: T5, recombinant mouse Axl-Fc chimera (R&D Systems, Cat. no. 854-AX) (mouse, UniProt Q00993 19-443); test: SPR (Biacore 3000), rmAxl-Fc immobilised on CM5 at 2,115.9 RU, MAb 1H12 injected [upper panel 1H12]
T5 construct: Bought soluble Fc chimera; also called rmAxl-Fc; rmAxl; Fc part of the bought chimera not given
T5 sequence: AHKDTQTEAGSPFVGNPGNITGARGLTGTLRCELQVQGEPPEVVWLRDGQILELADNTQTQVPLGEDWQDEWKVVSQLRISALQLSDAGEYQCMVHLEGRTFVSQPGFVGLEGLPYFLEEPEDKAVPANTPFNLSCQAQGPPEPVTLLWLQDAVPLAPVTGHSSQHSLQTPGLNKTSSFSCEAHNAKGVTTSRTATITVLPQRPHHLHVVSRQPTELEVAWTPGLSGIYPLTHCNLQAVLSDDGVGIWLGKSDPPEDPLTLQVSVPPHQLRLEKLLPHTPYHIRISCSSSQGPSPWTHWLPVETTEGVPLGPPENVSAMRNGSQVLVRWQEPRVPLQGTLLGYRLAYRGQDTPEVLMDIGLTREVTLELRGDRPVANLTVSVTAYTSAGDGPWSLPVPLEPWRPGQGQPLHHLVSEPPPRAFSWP

[9] = target: T2, recombinant human Axl-Fc chimera (R&D …); test: SPR (Biacore 3000), rhAxl-Fc immobilised on CM5 at 190 RU, ch1H12 at 1.3-666.7 nM, 25 °C, 1:1 Langmuir fit [table under the sensorgrams]
[10] = target: T2, recombinant human Axl-Fc chimera (R&D …); test: SPR (Biacore 3000, 25 °C), comparison of KD with parental murine 1H12
[11] = target: T2, recombinant human Axl-Fc chimera (R&D …); test: SPR (Biacore 3000, 25 °C), rhAxl-Fc immobilised at 190 RU, ch1H12 1.3-666.7 nM, 1:1 Langmuir model, KD as koff/kon
[12] = target: T4, human Axl receptor of Axl+ human cell …; test: flow cytometry on MDA-MB-231 cells, detection with APC-conjugated donkey anti-human IgG (H+L) F(ab')2
[13] = target: T2, recombinant human Axl-Fc chimera (R&D …); test: SPR (Biacore 3000, 25 °C), rhAxl-Fc immobilised at 190 RU, ch1H12 1.3-666.7 nM, 1:1 Langmuir model

B1: mouse anti-Axl monoclonal antibody 1H12 (antibody, V domains shown)
VH: EVKLVESGGDLVKPGGSLKLSCAASGFTFSSYGMSWVRQTPDKRLEWVATISSGGSYTYYPDSVKGRFTISRDNAKNTLYLQMSSLKSEDTAMYYCARHPIYYTYDDTMDYWGQGTSVTVSS
VL: DIVLTQSPAIMAASPGEKVTMTCSASSSVSSGNFHWYQQKPGTSPKLWIYRTSNLASGVPARFSGSGSGTSYSLTISSMEAEDAATYYCQQWSGYPWTFGGGTKLEIK
notes: also called MAb 1H12; m 1H12
[1]
  binding result: no binding (tested: 10 µg/mL)
[2]
  kon: 214000 M⁻¹ s⁻¹
[3]
  binding result: no binding (tested: 10 µg/mL)
[4]
  EC50 (read off the curve): ~0.9 nM
[5]
  Kd: 0.0498 nM
[6]
  half-life of the 1H12/Axl complex: 18 h
[7]
  koff: 1.07e-05 s⁻¹
[8]
  binding result: no binding (tested: 10 µg/mL)

B2: chimeric (mouse variable/human constant IgG1) monoclonal antibody ch1H12 (antibody, V domains shown)
VH: EVKLVESGGDLVKPGGSLKLSCAASGFTFSSYGMSWVRQTPDKRLEWVATISSGGSYTYYPDSVKGRFTISRDNAKNTLYLQMSSLKSEDTAMYYCARHPIYYTYDDTMDYWGQGTSVTVSS
VL: DIVLTQSPAIMAASPGEKVTMTCSASSSVSSGNFHWYQQKPGTSPKLWIYRTSNLASGVPARFSGSGSGTSYSLTISSMEAEDAATYYCQQWSGYPWTFGGGTKLEIK
notes: also called chimeric MAb ch1H12; chimeric monoclonal antibody 1H12; not shown: constant domains of the human IgG1 heavy chain; human light chain constant domain (C-kappa)
[9]
  kon: 271000 M⁻¹ s⁻¹
[10]
  fold lower KD than the parental murine antibody 1H12: 4.5 fold
[11]
  Kd: 0.011 nM
[12]
  EC50 (read off the curve): ~0.6 nM
[6]
  half-life of the ch1H12/Axl complex: 64.4 h
[13]
  koff: 2.99e-06 s⁻¹
